Experimental data reported in US20260265403A1 (TJ BIOPHARMA SHANGHAI, published 2026).

Tests used:
Human CD24 [1] = target: T1, Human CD24 (human, UniProt P25063 27-59, limits assumed); test: SPR affinity ranking, 1:1 binding, analyte conc. 19.71 nM
T1 chain (looked up): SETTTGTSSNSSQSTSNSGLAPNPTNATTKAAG

Human CD24 [2] = target: T1, Human CD24; test: affinity ranking; antibody as ligand, Human CD24 as analyte
Human CD24 [3] = target: T1, Human CD24; test: SPR, second 1:1 binding column set
human CD24 on cells [4] = target: T2, human CD24 on cells (human, UniProt P25063 27-59); test: flow cytometry (GMFI), SKOV3 cells; EC50 table under the graphs [Cont'd) B]
T2 construct: whole, on cells; One molecule for all cell lines; the cell line is named under assay or readout; also called cell surface CD24; cell-based CD24
T2 chain (looked up): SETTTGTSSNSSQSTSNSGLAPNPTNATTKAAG

human CD24 on cells [5] = target: T2, human CD24 on cells; test: flow cytometry (GMFI), MCF-7 cells; EC50 table under the graphs

B1: VH1 + VL3 (4451H) (antibody, V domains shown)
VH: QVQLVQSGAEVKKPGASVKVSCKASGYDFTGYHMNWVRQAPGQGLEWMGEINPITSDKTFNQKFKSRVTMTRDTSISTAYMELSRLRSDDTAVYYCARRDYGTSLDYWGQGTTVTVSS
VL: DIQLTQSPSFLSASVGDRVTITCRASKSISKYLAWYQQKPGKAPKLLIYAGSTLHSGIPSRFRGSGSGTEFTLTISSLQPEDFATYYCQQHNEYPITFGQGTKLEIK
notes: also called Antibody No 0; Parental
- apparent Kd (pooled screen) (Human CD24 [1]): 172 nM
- apparent koff (pooled screen) (Human CD24 [1]): 0.0275 s⁻¹
- apparent kon (pooled screen) (Human CD24 [1]): 160000 M⁻¹ s⁻¹
- apparent Kd (pooled screen) (Human CD24 [2]): 23.1 nM
- apparent koff (pooled screen) (Human CD24 [2]): 0.0158 s⁻¹
- apparent kon (pooled screen) (Human CD24 [2]): 685000 M⁻¹ s⁻¹
- apparent Kd (pooled screen) (Human CD24 [3]): 25.1 nM
- apparent koff (pooled screen) (Human CD24 [3]): 0.0192 s⁻¹
- apparent kon (pooled screen) (Human CD24 [3]): 763000 M⁻¹ s⁻¹
- EC50 (human CD24 on cells [4]): 0.44 µg/mL
- EC50 (human CD24 on cells [5]): 0.39 µg/mL

B2: VH3 + VL2 (humanized 4451) (antibody, V domains shown)
VH: QVQLVQSGAEVKKPGASVKVSCKASGYDFTGYHMNWVRQAPGQGLEWIGEINPITSDKTFNQKFKSRATMTVDTSISTAYMELSRLRSDDTAVYYCARRDYGTSLDYWGQGTTVTVSS
VL: DIQLTQSPSFLSASVGDRVTITCRASKSISKYLAWYQQKPGKAPRLLIYAGSTLHSGVPSRFRGSGSGTEFTLTISSLQPEDFATYYCQQHNEYPITFGQGTKLEIK
notes: IgG expressed in HEK293
- Kd (Human CD24 [2]): 23.7 nM
- koff (Human CD24 [2]): 0.0262 s⁻¹
- kon (Human CD24 [2]): 1.1e+06 M⁻¹ s⁻¹
- EC50 (human CD24 on cells [4]): 0.52 µg/mL
- EC50 (human CD24 on cells [5]): 0.52 µg/mL

B3: VH2 + VL3 (humanized 4451) (antibody, V domains shown)
VH: QVQLVQSGAEVKKPGASVKVSCKASGYDFTGYHMNWVRQAPGQGLEWIGEINPITSDKTFNQKFKSRVTMTVDTSISTAYMELSRLRSDDTAVYYCARRDYGTSLDYWGQGTTVTVSS
VL: DIQLTQSPSFLSASVGDRVTITCRASKSISKYLAWYQQKPGKAPKLLIYAGSTLHSGIPSRFRGSGSGTEFTLTISSLQPEDFATYYCQQHNEYPITFGQGTKLEIK
notes: IgG expressed in HEK293
- Kd (Human CD24 [2]): 19.4 nM
- koff (Human CD24 [2]): 0.023 s⁻¹
- kon (Human CD24 [2]): 1.18e+06 M⁻¹ s⁻¹
- EC50 (human CD24 on cells [4]): 0.42 µg/mL
- EC50 (human CD24 on cells [5]): 0.42 µg/mL

B4: VH3 + VL3 (humanized 4451) (antibody, V domains shown)
VH: QVQLVQSGAEVKKPGASVKVSCKASGYDFTGYHMNWVRQAPGQGLEWIGEINPITSDKTFNQKFKSRATMTVDTSISTAYMELSRLRSDDTAVYYCARRDYGTSLDYWGQGTTVTVSS
VL: DIQLTQSPSFLSASVGDRVTITCRASKSISKYLAWYQQKPGKAPKLLIYAGSTLHSGIPSRFRGSGSGTEFTLTISSLQPEDFATYYCQQHNEYPITFGQGTKLEIK
notes: IgG expressed in HEK293
- Kd (Human CD24 [2]): 23.8 nM
- koff (Human CD24 [2]): 0.027 s⁻¹
- kon (Human CD24 [2]): 1.13e+06 M⁻¹ s⁻¹
- EC50 (human CD24 on cells [4]): 0.42 µg/mL
- EC50 (human CD24 on cells [5]): 0.42 µg/mL

B5: VH4 + VL1 (humanized 4451) (antibody, V domains shown)
VH: QVQLVQSGAEVKKPGASVKVSCKASGYDFTGYHMNWVKQAPGQGLEWIGEINPITSDKTFNQKFKSRATMTVDRSISTAYMELSRLRSDDTAVYYCARRDYGTSLDYWGQGTTVTVSS
VL: DIQLTQSPSFLSASVGDRVTITCRASKSISKYLAWYQQKPGKAPKLLIYAGSTLHSGVPSRFSGSGSGTEFTLTISSLQPEDFATYYCQQHNEYPITFGQGTKLEIK
notes: IgG expressed in HEK293
- Kd (Human CD24 [2]): 8.33 nM
- koff (Human CD24 [2]): 0.0128 s⁻¹
- kon (Human CD24 [2]): 1.54e+06 M⁻¹ s⁻¹
- EC50 (human CD24 on cells [4]): 0.43 µg/mL
- EC50 (human CD24 on cells [5]): 0.45 µg/mL

B6: VH3 + VL1 (humanized 4451) (antibody, V domains shown)
VH: QVQLVQSGAEVKKPGASVKVSCKASGYDFTGYHMNWVRQAPGQGLEWIGEINPITSDKTFNQKFKSRATMTVDTSISTAYMELSRLRSDDTAVYYCARRDYGTSLDYWGQGTTVTVSS
VL: DIQLTQSPSFLSASVGDRVTITCRASKSISKYLAWYQQKPGKAPKLLIYAGSTLHSGVPSRFSGSGSGTEFTLTISSLQPEDFATYYCQQHNEYPITFGQGTKLEIK
notes: IgG expressed in HEK293
- Kd (Human CD24 [2]): 26 nM
- koff (Human CD24 [2]): 0.0294 s⁻¹
- kon (Human CD24 [2]): 1.13e+06 M⁻¹ s⁻¹
- EC50 (human CD24 on cells [4]): 0.42 µg/mL
- EC50 (human CD24 on cells [5]): 0.42 µg/mL

B7: VH3 + VL4 (humanized 4451) (antibody, V domains shown)
VH: QVQLVQSGAEVKKPGASVKVSCKASGYDFTGYHMNWVRQAPGQGLEWIGEINPITSDKTFNQKFKSRATMTVDTSISTAYMELSRLRSDDTAVYYCARRDYGTSLDYWGQGTTVTVSS
VL: DIQLTQSPSFLSASVGDRVTIYCRASKSISKYLAWYQQKPGKAPRLLIYAGSTLHSGIPSRFRGSGSGTEFTLTISSLQPEDFATYYCQQHNEYPITFGQGTKLEIK
notes: IgG expressed in HEK293
- Kd (Human CD24 [2]): 24.8 nM
- koff (Human CD24 [2]): 0.0163 s⁻¹
- kon (Human CD24 [2]): 655000 M⁻¹ s⁻¹
- EC50 (human CD24 on cells [4]): 0.42 µg/mL
- EC50 (human CD24 on cells [5]): 0.41 µg/mL

B8: VH1 + VL1 (humanized 4451) (antibody, V domains shown)
VH: QVQLVQSGAEVKKPGASVKVSCKASGYDFTGYHMNWVRQAPGQGLEWMGEINPITSDKTFNQKFKSRVTMTRDTSISTAYMELSRLRSDDTAVYYCARRDYGTSLDYWGQGTTVTVSS
VL: DIQLTQSPSFLSASVGDRVTITCRASKSISKYLAWYQQKPGKAPKLLIYAGSTLHSGVPSRFSGSGSGTEFTLTISSLQPEDFATYYCQQHNEYPITFGQGTKLEIK
notes: IgG expressed in HEK293
- Kd (Human CD24 [2]): 17.6 nM
- koff (Human CD24 [2]): 0.0169 s⁻¹
- kon (Human CD24 [2]): 958000 M⁻¹ s⁻¹
- EC50 (human CD24 on cells [4]): 0.45 µg/mL
- EC50 (human CD24 on cells [5]): 0.43 µg/mL

B9: VH4 + VL2 (humanized 4451) (antibody, V domains shown)
VH: QVQLVQSGAEVKKPGASVKVSCKASGYDFTGYHMNWVKQAPGQGLEWIGEINPITSDKTFNQKFKSRATMTVDRSISTAYMELSRLRSDDTAVYYCARRDYGTSLDYWGQGTTVTVSS
VL: DIQLTQSPSFLSASVGDRVTITCRASKSISKYLAWYQQKPGKAPRLLIYAGSTLHSGVPSRFRGSGSGTEFTLTISSLQPEDFATYYCQQHNEYPITFGQGTKLEIK
notes: IgG expressed in HEK293
- Kd (Human CD24 [2]): 9 nM
- koff (Human CD24 [2]): 0.0115 s⁻¹
- kon (Human CD24 [2]): 1.28e+06 M⁻¹ s⁻¹
- EC50 (human CD24 on cells [4]): 0.43 µg/mL
- EC50 (human CD24 on cells [5]): 0.44 µg/mL

B10: VH1 + VL4 (humanized 4451) (antibody, V domains shown)
VH: QVQLVQSGAEVKKPGASVKVSCKASGYDFTGYHMNWVRQAPGQGLEWMGEINPITSDKTFNQKFKSRVTMTRDTSISTAYMELSRLRSDDTAVYYCARRDYGTSLDYWGQGTTVTVSS
VL: DIQLTQSPSFLSASVGDRVTIYCRASKSISKYLAWYQQKPGKAPRLLIYAGSTLHSGIPSRFRGSGSGTEFTLTISSLQPEDFATYYCQQHNEYPITFGQGTKLEIK
notes: IgG expressed in HEK293
- Kd (Human CD24 [2]): 15 nM
- koff (Human CD24 [2]): 0.0241 s⁻¹
- kon (Human CD24 [2]): 1.61e+06 M⁻¹ s⁻¹
- EC50 (human CD24 on cells [4]): 0.43 µg/mL
- EC50 (human CD24 on cells [5]): 0.4 µg/mL

B11: VH1 + VL2 (humanized 4451) (antibody, V domains shown)
VH: QVQLVQSGAEVKKPGASVKVSCKASGYDFTGYHMNWVRQAPGQGLEWMGEINPITSDKTFNQKFKSRVTMTRDTSISTAYMELSRLRSDDTAVYYCARRDYGTSLDYWGQGTTVTVSS
VL: DIQLTQSPSFLSASVGDRVTITCRASKSISKYLAWYQQKPGKAPRLLIYAGSTLHSGVPSRFRGSGSGTEFTLTISSLQPEDFATYYCQQHNEYPITFGQGTKLEIK
notes: IgG expressed in HEK293
- Kd (Human CD24 [2]): 13.8 nM
- koff (Human CD24 [2]): 0.0239 s⁻¹
- kon (Human CD24 [2]): 1.74e+06 M⁻¹ s⁻¹
- EC50 (human CD24 on cells [4]): 0.38 µg/mL
- EC50 (human CD24 on cells [5]): 0.4 µg/mL

B12: VH2 + VL1 (humanized 4451) (antibody, V domains shown)
VH: QVQLVQSGAEVKKPGASVKVSCKASGYDFTGYHMNWVRQAPGQGLEWIGEINPITSDKTFNQKFKSRVTMTVDTSISTAYMELSRLRSDDTAVYYCARRDYGTSLDYWGQGTTVTVSS
VL: DIQLTQSPSFLSASVGDRVTITCRASKSISKYLAWYQQKPGKAPKLLIYAGSTLHSGVPSRFSGSGSGTEFTLTISSLQPEDFATYYCQQHNEYPITFGQGTKLEIK
notes: IgG expressed in HEK293
- Kd (Human CD24 [2]): 20.9 nM
- koff (Human CD24 [2]): 0.0264 s⁻¹
- kon (Human CD24 [2]): 1.26e+06 M⁻¹ s⁻¹
- EC50 (human CD24 on cells [4]): 0.45 µg/mL
- EC50 (human CD24 on cells [5]): 0.45 µg/mL

B13: VH4 + VL3 (humanized 4451) (antibody, V domains shown)
VH: QVQLVQSGAEVKKPGASVKVSCKASGYDFTGYHMNWVKQAPGQGLEWIGEINPITSDKTFNQKFKSRATMTVDRSISTAYMELSRLRSDDTAVYYCARRDYGTSLDYWGQGTTVTVSS
VL: DIQLTQSPSFLSASVGDRVTITCRASKSISKYLAWYQQKPGKAPKLLIYAGSTLHSGIPSRFRGSGSGTEFTLTISSLQPEDFATYYCQQHNEYPITFGQGTKLEIK
notes: IgG expressed in HEK293
- Kd (Human CD24 [2]): 8.84 nM
- koff (Human CD24 [2]): 0.0119 s⁻¹
- kon (Human CD24 [2]): 1.34e+06 M⁻¹ s⁻¹
- EC50 (human CD24 on cells [4]): 0.44 µg/mL
- EC50 (human CD24 on cells [5]): 0.45 µg/mL

B14: VH + VL (4451 parental variable regions, Table 7) (antibody, V domains shown)
VH: EVQLQQSGPELVKPGASVKISCKASGYDFTGYHMNWVKQSPEKSLEWIGEINPITSDKTFNQKFKSKATLTVDRSSSTAYMYLKSLTSEDSAVYYCARRDYGTSLDYWGQGTTLTVSS
VL: DVQITQSPSYLAASPGETITIYCRASKSISKYLAWYQEKPEKTNRLLIYAGSTLHSGIPSRFRGSGSGKDFTLTVSGLEPEDFAMYYCQQHNEYPITFGAGTKLELK
- Kd (Human CD24 [2]): 3.23 nM
- koff (Human CD24 [2]): 0.00937 s⁻¹
- kon (Human CD24 [2]): 2.9e+06 M⁻¹ s⁻¹
- EC50 (human CD24 on cells [4]): 0.43 µg/mL
- EC50 (human CD24 on cells [5]): 0.4 µg/mL
